Assay results published in patent US7094575B2 (priority 1999, dated 2006).
“And” between values parts separate entries of the source, which are not always exact repeats. Equal entries are not always repeated. Where two headings read alike, the source gives them in different places. Where no end group is shown, it is not given here.

Key:
Daboiatoxin PLA2 [1] = target: Daboiatoxin PLA2 (Daboia siamensis, UniProt Q7T2R1+Q7T3T5); type: in vivo, mice; details: mouse, in vivo
[2] = target: daboiatoxin, the major PLA2 toxin of Daboia russelli siamensis venom (Daboia siamensis, UniProt Q7T2R1+Q7T3T5); type: biochemical
[3] = system: Daboia russelli siamensis venom; type: in vivo, mice
[4] = system: PLA2 activity of Daboia russelli siamensis venom; type: biochemical
[5] = system: Daboia russelli siamensis (Thailand) venom; type: in vivo, mice
[6] = system: Daboia russelli pulchella (Sri Lanka) venom; type: in vivo, mice
[7] = system: Daboia russelli russelli (India) venom; type: in vivo, mice
[8] = system: Daboia russelli siamensis venom; type: in vivo, mice; details: Table 6; for Paw oedema: 45 min, n = 3
Daboiatoxin PLA2 [9] = target: T1, Daboiatoxin PLA2 (Daboia siamensis, UniProt Q7T2R1+Q7T3T5); type: in vivo, mice
T1 sequence (Q7T2R1 whole entry, looked up): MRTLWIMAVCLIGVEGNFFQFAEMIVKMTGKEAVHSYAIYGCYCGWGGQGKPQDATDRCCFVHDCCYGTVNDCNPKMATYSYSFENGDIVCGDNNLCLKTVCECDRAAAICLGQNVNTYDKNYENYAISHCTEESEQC
T1 sequence (Q7T3T5 whole entry, looked up): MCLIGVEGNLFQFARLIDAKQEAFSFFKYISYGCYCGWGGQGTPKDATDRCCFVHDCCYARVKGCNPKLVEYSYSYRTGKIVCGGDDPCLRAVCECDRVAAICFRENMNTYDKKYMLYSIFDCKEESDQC

[10] = not given; remark: listed apart in the source

GAFGIFTEDSTEK [PP-0005]
Anti-Inflammatory Activity (Daboiatoxin PLA2 [1]): Negative
PLA2-inhibitory activity (in words) [2]: fails to inhibit PLA2 activity
PLA2 inhibition (%) [2]: −13%

LSLQNGLYK [PP-0006]
IC50 [2]: 250 µg
PLA2 inhibition (%) [2]: 70%

PGLPLSLQNG [P-0029]
IC50 [2]: 40 µg
PLA2 inhibition (%) [2]: 90%
Oedema (mg), inhibitor alone (mouse, in vivo): 13 ± 2 mg

PLPGLPLSKP [P-0009]
IC50 [2]: 125 µg
PLA2 inhibition (%) [2]: 80%

PLPGLPLSLQNGLYCPGAFGIF [PP-0036]
Anti-Inflammatory Activity (Daboiatoxin PLA2 [1]): Negative
PLA2-inhibitory activity (in words) [2]: devoid of PLA2-inhibitory activity
PLA2 inhibition (%) [2]: −3.0%

PLPGLPLSLQNGLYK [PP-0008]
Anti-Inflammatory Activity (Daboiatoxin PLA2 [1]): Negative
PLA2-inhibitory activity (in words) [2]: insignificant
PLA2 inhibition (%) [2]: 18%

B1: PAF: 140-kDa hexameric glycoprotein of six 23-kDa subunits purified from Python reticulatus serum; SEQ ID NO: 6 (protein, listed as Python reticulatus)
chain: MKSLQTICLLFIFIARGTSDKCEICHGFGDDCDGYQEECPSPEDRCGKILIDIALAPVSFRATHKNCFSSSICKLGRVDIHVWDGVYIRGRTNCCDNDQCEDQPLPGLPLSLQNGLYCPGAFGIFTEDSTEHEVKCRGTETMCLDLVGYRQESYAGNITYNIKGCVSSCPLVTLSERGHEGRKNDLKKVECREALKPASSD
Protection against lethality, Survival/total ([3]; 24 hr): 4/4
% neutralisation ([3]; mouse, in vivo, ip): 100%
Inhibitory activity (IC50) [4]: 0.2 mg
Protection against lethality, Survival/total ([5]; 24 hr): 3/3
% neutralisation ([5]; mouse, in vivo, ip): 100%
Protection against lethality, Survival/total ([6]; 24 hr): 3/3
% neutralisation ([6]; mouse, in vivo, ip): 100%
Protection against lethality, Survival/total ([7]; 24 hr): 3/3
% neutralisation ([7]; mouse, in vivo, ip): 100%
% Inhibition (mean) ([8]; venom 5 μg + 25 μg inhibitor): 7.8%
Paw oedema ([8]; venom 5 μg + 25 μg inhibitor subplantar, PAF is recombinant): 107 ± 20 mg
% Inhibition (mean) ([8]; venom 5 μg + 50 μg inhibitor): 46.5%
Paw oedema ([8]; venom 5 μg + 50 μg inhibitor): 62 ± 2.2 mg
% Inhibition (mean) ([8]; venom 5 μg + 100 μg inhibitor): 74.6%
Paw oedema ([8]; venom 5 μg + 100 μg inhibitor): 29 ± 0.8 mg
Paw oedema (Daboiatoxin PLA2 [9]; 45 min, n = 3): 18 ± 6.0 mg and 13 ± 0.4 mg
% Inhibition (mean) (Daboiatoxin PLA2 [9]; mouse, in vivo): 89.4% and 92.1%
Survival/total, PAF alone ([10]; 24 hr): 3/3
toxicity of native PAF ([10]; mice): non-toxic
% Inhibition (mean) column, inhibitor alone (mouse, in vivo): n.s.
Paw oedema (mg), inhibitor alone (n = 3): 10 ± 5.2 mg
